Target: T1, hiR2-FL-E594V-T7 (human, UniProt Q6PJF5 1-856)
T1 sequence: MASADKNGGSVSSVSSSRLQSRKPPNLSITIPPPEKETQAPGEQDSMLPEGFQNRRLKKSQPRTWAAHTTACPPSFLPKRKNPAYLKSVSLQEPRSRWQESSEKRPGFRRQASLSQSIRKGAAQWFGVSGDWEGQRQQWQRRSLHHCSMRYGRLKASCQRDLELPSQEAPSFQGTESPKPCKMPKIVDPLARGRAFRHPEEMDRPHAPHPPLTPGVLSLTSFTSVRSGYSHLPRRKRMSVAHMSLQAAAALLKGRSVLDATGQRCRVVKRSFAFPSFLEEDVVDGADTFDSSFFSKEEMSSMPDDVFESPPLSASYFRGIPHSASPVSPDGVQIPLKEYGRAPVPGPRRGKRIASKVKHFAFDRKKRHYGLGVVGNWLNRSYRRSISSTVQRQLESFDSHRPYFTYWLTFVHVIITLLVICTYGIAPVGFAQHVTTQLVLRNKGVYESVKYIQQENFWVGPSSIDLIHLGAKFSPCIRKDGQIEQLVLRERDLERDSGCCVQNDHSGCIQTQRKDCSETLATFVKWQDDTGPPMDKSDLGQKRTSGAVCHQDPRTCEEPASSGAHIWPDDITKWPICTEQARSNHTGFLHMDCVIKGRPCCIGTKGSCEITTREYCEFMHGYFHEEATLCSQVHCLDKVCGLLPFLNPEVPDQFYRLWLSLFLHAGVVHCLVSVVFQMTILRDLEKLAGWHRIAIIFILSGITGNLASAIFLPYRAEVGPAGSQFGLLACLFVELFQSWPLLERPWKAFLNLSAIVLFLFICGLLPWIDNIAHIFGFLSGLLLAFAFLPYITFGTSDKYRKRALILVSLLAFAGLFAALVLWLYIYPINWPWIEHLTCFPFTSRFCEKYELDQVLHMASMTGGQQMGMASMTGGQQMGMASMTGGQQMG
Assay: FACS, MEF-DKO cells, 3 µg/ml
Outline: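 Binding read by flow cytometry after a PE goat anti-mouse IgG F(ab′)2 secondary (1:100, on ice, 1 h, dark). Before that, immortalized MEF-DKO lines carrying single-mutant hiR2-FL-T7 constructs were incubated 1 h on ice with 3 μg/ml antibody or FACS buffer alone.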

Binder	loss of binding vs wild type
antibody 48 (antibody, V domains shown, mouse IgG, kappa light chain; also called clone #48; purified antibody 48) VH: QVQLQQSGTELVRPGTSVKVSCKASGYAFTNYLIEWVKQRPGQGLEWIGVINPGSGFTKYNEKFKGKATLTADKSSSTVYMHLSSLTSEDSAVYFCARGLYRAMDYWGQGTSVTVSS VL: DIQMTQSPASQSASLGESVTITCLASQTIATWLAWYQQKPGKSPQLLIYGATTLADGVPSRFSGGGSGTKFSFKISSLQAEDFVSYYCQQLYSTPYTFGGGTKLEIK	≥ 30%
antibody 50 (antibody, V domains shown, mouse IgG, kappa light chain; also called clone #50; purified antibody 50) VH: QVQLQQSGAELVRPGASVKVSCKASGYAFSNYLIEWVKQRPGQGLEWIGVINPGSGFTKYNEKFKGKATLTADKSSSTAYMQLSSLTSEDSAVYFCARGLYRAMDYWGQGTSVTVSS VL: DIQMTQSPASQSASLGESVTITCLASQTIGTWLAWYQQKPGKSPQLLIYAAASLADGVPSRFSGGGSGTKFSFKISSLQAEDFVNYYCQQIYSTPYTFGGGTKLEIK	≥ 30%
